Measurements as given in the DeepSol protein solubility set.

Experiment: soluble on expression in E. coli; label from the status in PepcDB or PDB records

Row | Sequence | soluble on expression in E. coli
1 | MGSDKIHHHHHHMNSLSFDFSDDFRPLAAKMRPRCLADYIGQSHLLGKDKPLRRAIEAGYAHSMILWGPPGTGKTTLAEIIAQHFDAEVERLSAVTSGVKEIREAIEQAKYNRQAGRKTLLFVDEVHRFNKSQQDAFLPYIEDGTVIFIGATTENPSFELNNALLSRARIYLLKPLQADEIEQILQNALQDKQNGLGQEHFILADEVLKLLADYVNGDARYALNCLALMADMAESSPQGKVLNQALLIAVLGERNARFDKGGDHYYDLISALHKSIRGSAVDAALYWYARILTAGGDPLYVARRLLAIASEDIGNADPRAMQIAISAWDCYSRVGAYEGERAIAQAVIYLAVAPKSNAVYQAFNQAKQLAKQAKDYDVPLHLRNAPTALMKSLAYGEEYRYAHNEANAYAAGENYFPEQLQDTQFYFPTERGMEKQIKEKLAWLKMQDHASEQQRYKR | not soluble
2 | MSLPANKLVFVGGMGAGKTTAVRAISDVEPVSTEMPLSQDAYGDKTYTTVALDYSSIELEDGELLHVYGVPGQKYLDFMWPLVCDGALGVIVLTSARDTQMRDTTLELLREFSRITPEASLAVGVTMTDEVQEFLLPPFREALVAEGFRIPVMRVDARSATQITFLVKTLLSYRYTSAPVLEHHHHHH | soluble
3 | MVSQLACIIWTGIIAGRTATLTEGDNMKLPKWLEEKYDLLWDKFEDREFRSTEALEILGKEHLIDEKSLSAAISEMRKKGWIETRKDPDDERRRIYMLRPKSEIIQDYLTLKDDKLGRADIERILKGAADLIRTRVDYKFILVLLFMKQMSDKWMMEYQKAYEDAIKEYGLSEEEARLEARNSAYHDLDIKEEYLWDNIRKDVENLPIKFAGALKNLAELNPAFKDVVDAFDFVEFTQSQENREILRQLVELFSEKKLTNVDPDILGDAYEWILRYFAPTKAKEGEVYTPREVIRLLVEILDPKPGESVYDPASASNGMLIISHKYVKETYGEAERLFLYGQEVNRKTMALGSMNMYIHDIKDHHIAHGDTLLYPKFKESDGIMRFDVVIANPPWNQDGYGEDTLKKGDYWRERFRYGFVNKQSADWAWIQHMIASAKDDGRIGVVIDNGCLFRGGREKSIRSAVLEDDLIEAVILLPEKLFYNTGAPGAIIILNKDKDEERRGKVLFINAGEEYEKHPEVRKLNILSDGNIERILEAYREFQGDDGFSRVVDLDEIRENDYNLNVPLYAFPEEELEDIDVAGEWMRLSEIEEELAEVDERIRGYLDELGYMGVKM | soluble
4 | MKRADDFQQRRAHLANLSDEELQTRFWEMAEKIVDPLLDLGKKNTTPSIERSVLLRMGFSSLEAKAIVDKTMDRGLMGKGAGHIVYKIAKEKNISVREAGLALSEGKYWDDAIQIFKGGVK | soluble
5 | MARLAIGGGSLCPAYGALRMQPVSTFPIYIVSIARARARLEKMLEGASGLGLDLRPVEGVDGKTISPDDWRDFDRRGFELRNGRHALPGEYGCYASHIKALETFLATDAPVAVIVEDDVAFTPDFSERVKAMVAAMPDDAIVKLTNHRRKGFKARKTSALGDTFGRCIYGPQGSSACYIISRRAAERFLKAARRMTLPFDRALECGWGYGTEVYITDKDFLPFGDPDTLVGTRDEYRGSKFARLKRVPAYLSSFYDNIARYIYAYRLEHHHHHH | soluble
6 | MLYFVLCDLKFNQFSRYPMSYQKIELSISLSLDSPKLDESDFILLSVKYLEKSLGKKKEFSGFFEDIEKLYFKQNYKEAIEKILDFCKKNESLLSEQVVQRLAEVAPRLKSNPKDNESRRLYETLYADHLESVIKQESDLSVFNELRDSYNAVKPEYAVTHETEIKTLDEAKQFILSFVMLNDNVELPLKAQSERYPKKDRSREELGNTPSANPGIMKPNSPNFTDNLVPVRDVPKIAINEKVAGGYSKTKPTTPFVASLSGTTYSLMVVLTDYIEKHKTDKDIEKKVNQIINLWISSYIKEGYHSYSEVVDVLTEPFLQSIFDKANIKLNYGVLDDTHAEFRKAQDYVFGLTIQSAMHHELQERFKNKEKLQEEVKNFESGLNKLNQNVENTGRHREALNKLNEVFQDWSAGKKSYDAFKSESNQLIHDIESEEQKSNRGLGSMLKNLGNYLLYLITLRFLKEDYPKPSSPVTMLVTELRGTLEQIDHFHKTSLSLKKATQPDPKNTSSSDETADVRKSAVDTDKPSKNQDSEVKKTLDSEQLEEVQRQDDKSARLQ | not soluble
7 | MSTKPPIERIMYIQMRTSLEMFRSDLVDLEALANAAKEALEQLPYIPKEPCGKGEDDPLSGPESALRTGRLCGLVCCTATAAENALSTCSKLIDWAYANEPDGVDDAVLADDDDDDDDDDEGGGNGANGGGGTNGGGDGSNGSGNGSPPDGGGVGAAPSPGRGELAETRPSRSGVALDLTPAPAPAGTPVA | not soluble
